In US20090162358A1 (GlaxoSmithKline, published 2009):
Positions count from the first letter of the chain named. Ends that are not written are not given here. * marks the point of attachment. Biotin = O=C1N[C@H]2[C@H](CS[C@H]2CCCCC(=O)*)N1

B1: 2C1 mouse monoclonal antibody (antibody, V domains shown)
VH: EVQLQQSGAELVKPGASVKLSCTGSGFNIKVYYVHWLKQLTEQGLEWIGRIDPENGETIYAPKFQDKATLTVDTSSNTAYLQLSSLTSEDTAVYYCVSSGYWGQGTTLTVSS
VL: DIVMTQSAFSNPVTLGTSASISCRSSKSLLHRNGITYLYWYLQKPGQSPQLLIYQMSNLASGVPDRFTSSGSGTDFTLKISRVEAEDVGVYYCAQNLELWTFGGGTKLEIK
notes: Mouse hybridoma antibody
B2: 2E11 mouse monoclonal antibody (antibody, V domains shown)
VH: B1 VH with L11V, G24A, V34I, I59K, A61V, D66G, Q82H, A92G, S98T
VL: B1 VL with S7A, T14A, R32S, T68S, K79R
notes: Mouse hybridoma antibody
B3: 5C9 mouse monoclonal antibody (antibody, V domains shown)
VH: EVQLQQSGAEFVRPGASVKLSCTASGFNIKTYYIHWLKQRTDQGLEWIGRIDPEDGETKFGPKFRGKATLTADTSSNTASLQLSSLTSEDTGVYYCVTSGYWGQGTTLSVSS
VL: B1 VL with S7A, R32S, T68S, K79R
notes: Mouse hybridoma antibody
B4: 14B3 mouse monoclonal antibody (antibody, V domains shown)
VH: B1 VH with K13E, I59L, A61T, D66G, L70F
VL: B1 VL
notes: Mouse hybridoma antibody
B5: 16D4 mouse monoclonal antibody (antibody, V domains shown)
VH: B1 VH with G24A, V31D, V34M, I59Q, D66G, T69S, V72A, Q82H
VL: B1 VL with S7A, R32S, T68S, K79R
notes: Mouse hybridoma antibody
B6: 5D1 mouse monoclonal antibody (antibody, V domains shown)
VH: B1 VH with I59K, Q82H
VL: B1 VL
notes: Mouse hybridoma antibody
B7: 4D4 mouse monoclonal antibody (antibody, V domains shown)
VH: B1 VH with K13E, I59L, A61T, D66G, S84N, T107S
VL: B1 VL
notes: Mouse hybridoma antibody
B8: straight graft light chain L0 in combination with H11 (antibody, V domains shown)
VH: QVQLVQSGAEVKEPGASVKVSCKGSGFNIKVYYVHWLRQLPGKGLEWIGRIDPENGETIYTPKFQDKATLTVDTSTDTAYMELSSLRSEDTAVYYCVSSGYWGQGTLVTVSS
VL: DIVMTQSPLSLPVTPGEPASISCRSSKSLLHRNGITYLYWYLQKPGQSPQLLIYQMSNLASGVPDRFSGSGSGTDFTLKISRVEAEDVGVYYCAQNLELWTFGQGTKVEIKR
notes: Kabat positions; after CDRL1 the count on the entry is Kabat + 5; also called H11L0
B9: humanised de-immunised construct H48L19 (antibody, human IgG1, V domains shown)
VH: B8 VH with K30H, G42E
VL: DIVMTQSPLSNPVTPGEPASISCRSSKSLLHRNGKTYLYWYLQKPGQSPQLLIYQMDHLASGVPDRFSSSGSGTDFTLKISRVEAEDVGVYYCAQNLELWTFGQGTKVEIK
B10: humanised de-immunised construct H50L21 (antibody, human IgG1, V domains shown)
VH: B8 VH with K23T, K30H, G42E
VL: B9 VL with H58N
B11: humanised de-immunised construct H50L19 (antibody, human IgG1, V domains shown)
VH: B8 VH with K23T, K30H, G42E
VL: B9 VL
B12: humanised de-immunised construct H49L21 (antibody, human IgG1, V domains shown)
VH: B8 VH with V31T, G42E
VL: B9 VL with H58N
B13: humanised VL variant L14 in combination with H11 (antibody, V domains shown)
VH: B8 VH
VL: B8 VL with S48P, Q104G
notes: Kabat positions; after CDRL1 the count on the entry is Kabat + 5; also called H11L14
B14: humanised de-immunised construct H51L20 (antibody, human IgG1, V domains shown)
VH: B8 VH with K30H, V31T, G42E
VL: B9 VL with K35I
B15: humanised de-immunised construct H49L19 (antibody, human IgG1, V domains shown)
VH: B8 VH with V31T, G42E
VL: B9 VL
B16: humanised de-immunised construct H49L20 (antibody, human IgG1, V domains shown)
VH: B8 VH with V31T, G42E
VL: B9 VL with K35I
B17: humanised de-immunised construct H50L20 (antibody, human IgG1, V domains shown)
VH: B8 VH with K23T, K30H, G42E
VL: B9 VL with K35I
B18: humanised de-immunised construct H48L20 (antibody, human IgG1, V domains shown)
VH: B8 VH with K30H, G42E
VL: B9 VL with K35I
B19: humanised de-immunised construct H48L21 (antibody, human IgG1, V domains shown)
VH: B8 VH with K30H, G42E
VL: B9 VL with H58N
B20: humanised de-immunised construct H51L21 (antibody, human IgG1, V domains shown)
VH: B8 VH with K30H, V31T, G42E
VL: B9 VL with H58N
B21: humanised de-immunised construct H51L19 (antibody, human IgG1, V domains shown)
VH: B8 VH with K30H, V31T, G42E
VL: B9 VL

What was measured:
[1] = biological target: T1, N-terminal coupled CGGGEDVGSNKGAIIGLMVGG (22-38) ovalbumin conjugate (coupled by the N-terminus to ovalbumin); test: FMAT bead immunoassay, culture supernatant
T1 peptide: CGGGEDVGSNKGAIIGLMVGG
Description: (§1) Each of the expressed antibodies contained in culture supernatant was then screened in an FMAT (Fluorescent Microvolume Assay Technology) homogenous immunoassay. 29 positive antibodies were identified from this screening cascade that were negative for ovalbumin protein passively absorbed to polystyrene beads but positive for: [0158] (i) N-terminal coupled […] (22-38) (SEQ ID No:73) ovalbumin conjugate bound to polystyrene beads, [0159] (ii) N-terminal biotinylated β-amyloid(1-40) peptide bound to streptavidin coated polystyrene beads, [0160] (iii) C-terminal biotinylated β-amyloid(1-40) peptide bound to streptavidin coated polystyrene beads and [0161] (iv) N-terminal biotinylated β-amyloid (24-34) peptide, residues 24-34 of β-amyloid being […] (SEQ ID No:8), bound to streptavidin coated polystyrene beads.

[2] = biological target: T2, N-terminal biotinylated β-amyloid (24-34) peptide; test: FMAT bead immunoassay, culture supernatant
T2 peptide: Biotin-VGSNKGAIIGL
Description: as §1

ovalbumin protein = biological target: T3, ovalbumin protein (UniProt P01012 2-386); test: FMAT bead immunoassay, culture supernatant
T3 sequence (looked up): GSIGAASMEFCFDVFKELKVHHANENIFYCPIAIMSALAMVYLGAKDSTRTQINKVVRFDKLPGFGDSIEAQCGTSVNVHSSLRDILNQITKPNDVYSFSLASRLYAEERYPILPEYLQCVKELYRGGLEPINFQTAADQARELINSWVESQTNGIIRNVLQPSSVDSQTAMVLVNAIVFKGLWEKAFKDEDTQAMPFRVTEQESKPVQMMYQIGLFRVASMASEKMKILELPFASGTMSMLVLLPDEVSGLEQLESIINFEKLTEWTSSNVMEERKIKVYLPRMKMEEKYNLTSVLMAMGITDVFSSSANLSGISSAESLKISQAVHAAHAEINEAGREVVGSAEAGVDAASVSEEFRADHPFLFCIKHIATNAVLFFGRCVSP
Description: as §1

human β-amyloid 1-40 [3] = biological target: T4, human β-amyloid 1-40 (human, UniProt P05067 672-711); test: SPR Biacore 3000; mAb captured on anti-mouse IgG, Aβ 1-40 at 4-500 nM
T4 construct: domain: β-amyloid (1-40); Used in solution over captured antibody (Biacore) or coated on ELISA plates; also called human Aβ peptide (1-40); Aβ peptide (1-40)
Procedure: (§2) Purified mouse antibody preparations were captured on a polyclonal anti-mouse IgG antibody chip surface. Freshly prepared human β-amyloid 1-40 was diluted down in HBS-EP buffer and passed over the captured antibody surface at concentrations ranging from 4-500 nM for 5 minutes. […] Regeneration was achieved via a pulse of 100 mM H₃PO₄. […] All runs were double referenced against a blank surface and blank buffer injections.

human β-amyloid 1-40 [4] = biological target: T4, human β-amyloid 1-40; test: SPR Biacore 3000; mAb captured on anti-mouse IgG; triplicate run
Procedure: as §2

human β-amyloid 1-40 [5] = biological target: T4, human β-amyloid 1-40; test: ELISA on human Aβ peptide (1-40), in combination with H11
human β-amyloid 1-40 [6] = biological target: T4, human β-amyloid 1-40; test: SPR Biacore T100; antibody captured on anti-human IgG, Aβ 1-40 at 1-256 nM; 1:1 model
Procedure: (§3) Anti-human IgG (Biacore BR-1008-39) was coupled to a CM5 biosensor chip by primary amine coupling. The anti-beta amyloid antibodies were captured on this surface. Beta amyloid (1-40) was then passed over at 256, 64, 16, 4 and 1 nM, with a 0 nM (ie buffer alone passed over the captured antibody surface) used for double referencing. […] The data was analysed using the 1:1 model inherent to the T100. The run was carried out at 25° C. and 37° C. using HBS-EP as the running buffer.

human β-amyloid 1-40 [7] = biological target: T4, human β-amyloid 1-40; test: SPR Biacore T100 at 37 C; antibody captured on anti-human IgG, Aβ 1-40 at 1-256 nM
Procedure: as §3
From this panel some constructs were also assessed for binding kinetics at physiological temperature.

T4 sequence (P05067 672-711 limits assumed): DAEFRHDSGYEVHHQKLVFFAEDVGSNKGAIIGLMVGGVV

Row | Binder | binding result [1] | binding result [2] | binding result (ovalbumin protein) | Kd (human β-amyloid 1-40 [3]) [nM] | koff (human β-amyloid 1-40 [3]) [s⁻¹] | kon (human β-amyloid 1-40 [3]) [M⁻¹ s⁻¹] | Kd (human β-amyloid 1-40 [6]) [nM] | also measured
1 | B1 | binds | binds | no binding | 1.95 | 0.000129 | 66300 |  | 
2 | B2 | binds | binds | no binding | 2.01 | 0.00017 | 84500 |  | 
3 | B3 | binds | binds | no binding | 2.69 | 0.000164 | 61100 |  | 
4 | B4 | binds | binds | no binding | 0.95 | 7.11e-05 | 74800 |  | 
5 | B5 | binds | binds | no binding | 7.62 | 0.000618 | 81200 |  | 
6 | B6 | binds | binds | no binding | 2.57 | 0.000147 | 57000 |  | Kd (human β-amyloid 1-40 [4]): 2.05 nM; koff (human β-amyloid 1-40 [4]): 0.000135 s⁻¹; kon (human β-amyloid 1-40 [4]): 65800 M⁻¹ s⁻¹
7 | B7 | binds | binds | no binding | 1.13 | 8.27e-05 | 73200 |  | 
8 | B8 |  |  |  |  |  |  |  | binding result (human β-amyloid 1-40 [5]): binds
9 | B9 |  |  |  |  |  |  | 3.15 | 
10 | B10 |  |  |  |  |  |  | 2.17 | Kd (human β-amyloid 1-40 [7]): 2.7 nM
11 | B11 |  |  |  |  |  |  | 2.76 | 
12 | B12 |  |  |  |  |  |  | 2.58 | 
13 | B13 |  |  |  |  |  |  |  | binding result (human β-amyloid 1-40 [5]): binds
14 | B14 |  |  |  |  |  |  | 2.23 | Kd (human β-amyloid 1-40 [7]): 3.89 nM
15 | B15 |  |  |  |  |  |  | 3.09 | 
16 | B16 |  |  |  |  |  |  | 2.23 | 
17 | B17 |  |  |  |  |  |  | 2.5 | Kd (human β-amyloid 1-40 [7]): 3.5 nM
18 | B18 |  |  |  |  |  |  | 2.02 | Kd (human β-amyloid 1-40 [7]): 3.54 nM
19 | B19 |  |  |  |  |  |  | 2.01 | Kd (human β-amyloid 1-40 [7]): 2.69 nM
20 | B20 |  |  |  |  |  |  | 2.05 | Kd (human β-amyloid 1-40 [7]): 2.9 nM
21 | B21 |  |  |  |  |  |  | 2.65 | 
